From PMC4626798 (Scientific Reports, 2015)
Where “and” joins values, the source holds several entries; their conditions need not be identical. Identical values can stand only once. One block for each binder: values may come before it.

B1: 6 × His-Vhs3^PD (domain or fragment, S. cerevisiae, UniProt Q08438 288-577, looked up)
chain: DDGKLHVLFGATGSLSVFKLKHMIRKLEEIYGRDKICIQVILTNSATKFFAMKYMRKNKKQHNSIDTSFNSTNSNAGNITGNKKKVASLEKFSIQKTSSNSAASQTNNKQEEEKQMASTTGFPSTLGGSRTYSNSSNVVSQHPQIELPAHIQFWTDQDEWDVWRQRTDPVLHIELRRWADILVVAPLTANTLAKIALGLCDNLLTSVIRAWNPTFPIFLAPSMGSGTFNSIMTKKHFRIIQEEMPWVTVFKPSEKVMGINGDIGLSGMMDANEIVGKIVVKLGGYPDVSA
notes: Vhs3, S. cerevisiae, PPCDC domain (PD), residues 288–577; Expected MW with tag 34.5 kDa; also called PPCDC domain of Vhs3; source: E. coli BL21 (DE3), purified (Ni2+ IMAC); alone from pET28a or co-expressed with Cab3^PD (pETDuet-1); not shown: His6, N-terminal, kept
B2: 6 × His-Hal3^PD (domain or fragment, S. cerevisiae, UniProt P36024 256-495, looked up)
chain: RLPQDDGKLHVLFGATGSLSVFKIKPMIKKLEEIYGRDRISIQVILTQSATQFFEQRYTKKIIKSSEKLNKMSQYESTPATPVTPTPGQCNMAQVVELPPHIQLWTDQDEWDAWKQRTDPVLHIELRRWADILVVAPLTANTLSKIALGLCDNLLTSVIRAWNPSYPILLAPSMVSSTFNSMMTKKQLQTIKEEMSWVTVFKPSEKVMDINGDIGLGGMMDWNEIVNKIVMKLGGYPKNN
notes: Hal3 (Sis2), S. cerevisiae, PPCDC domain (PD); expected MW with tag 29.1 kDa; also called PPCDC domain of Hal3; source: E. coli BL21 (DE3), purified (Ni2+ IMAC); alone from pET28 or co-expressed with Cab3^PD (pETDuet-1); not shown: His6, N-terminal, kept

Experiments:
[1] = biological target: the molecule itself; assay: cross-linking; purified PD protein treated with disuccinimydyl suberate (DSS) at 37 °C (15 min Hal3^PD, 40 min Vhs3^PD), SDS-PAGE on 8% gels
[2] = biological target: the molecule itself; assay: SEC; purified PD proteins and co-purified mixtures on Superose 12, 50 mM phosphate pH 7.0, 150 mM NaCl, 0.4 mL/min
GST-Ppz1^Cter = biological target: T1, GST-Ppz1^Cter (S. cerevisiae, UniProt P26570 345-692); assay: pull-down; GST-Ppz1^Cter (~6 μg) bound to glutathione agarose beads, incubated with increasing amounts of Hal3 (0.5-fold to 6-fold excess) for 1 h at 24 °C; washed with 50 mM Tris-HCl pH 7.5, 150 mM NaCl, 10% glycerol, 2 mM DTT; SDS-PAGE, Coomassie, densitometry; conditions: both partners purified
T1 construct: Ser/Thr protein phosphatase Ppz1, S. cerevisiae, carboxyl terminal domain, Ppz1 (Δ1–344), expressed from pGEX6P1-Ppz1^Cter; also called Ppz1 (Δ1–344); Ppz1 carboxyl terminal domain
T1 sequence (looked up): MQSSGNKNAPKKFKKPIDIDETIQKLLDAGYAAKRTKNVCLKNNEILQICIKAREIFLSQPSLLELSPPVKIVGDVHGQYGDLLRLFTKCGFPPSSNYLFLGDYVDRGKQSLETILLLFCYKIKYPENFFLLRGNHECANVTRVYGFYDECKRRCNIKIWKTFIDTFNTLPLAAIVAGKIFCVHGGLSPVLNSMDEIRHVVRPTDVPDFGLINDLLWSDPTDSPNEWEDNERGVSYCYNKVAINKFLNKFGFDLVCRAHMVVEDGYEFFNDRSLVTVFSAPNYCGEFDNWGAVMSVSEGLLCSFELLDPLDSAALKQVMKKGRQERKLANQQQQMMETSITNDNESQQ

6 × His-Ppz1^Cter = biological target: T2, 6 × His-Ppz1^Cter (S. cerevisiae, UniProt P26570 345-692); assay: SEC; IMAC-purified Ppz1^Cter–Hal3 complex on Superdex 200 HR 10/30, 50 mM Tris-HCl pH 7.5, 270 mM NaCl, 2 mM DTT, 2 mM EDTA; fractions analysed by SDS-PAGE and densitometry; conditions: both partners purified
T2 construct: Ser/Thr protein phosphatase Ppz1, S. cerevisiae, carboxyl terminal domain (Ppz1^Cter, Δ1–344), first MCS of pETDuet-1; also called N-terminally 6 × His-tagged version of Ppz1^Cter; source: E. coli BL21 (DE3), co-expressed with Hal3 from pETDuet-1; purified as the complex (Ni2+ IMAC, SEC); not shown: His6, N-terminal, kept
T2 sequence (looked up): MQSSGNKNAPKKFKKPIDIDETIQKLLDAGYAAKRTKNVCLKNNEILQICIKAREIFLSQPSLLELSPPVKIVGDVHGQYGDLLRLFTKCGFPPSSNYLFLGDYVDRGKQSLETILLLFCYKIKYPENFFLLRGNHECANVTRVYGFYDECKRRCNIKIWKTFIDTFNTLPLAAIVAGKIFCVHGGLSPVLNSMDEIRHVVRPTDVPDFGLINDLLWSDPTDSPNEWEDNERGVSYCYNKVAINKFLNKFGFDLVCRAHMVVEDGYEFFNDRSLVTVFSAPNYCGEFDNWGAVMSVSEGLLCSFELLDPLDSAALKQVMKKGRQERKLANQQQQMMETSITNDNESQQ

6 × His-Vhs3^PD = biological target: B1; assay: co-purification by Ni2+ IMAC after co-expression; untagged Cab3^PD co-expressed in E. coli with 6 × His-tagged Hal3^PD and/or Vhs3^PD (binary and ternary mixtures); Ni2+ IMAC, SDS-PAGE and densitometry; conditions: partners not purified
6 × His-Hal3^PD = biological target: B2; assay: as above; conditions: partners not purified

Binder: B1
- stoichiometry N [1]: 3

Binder: B2
- stoichiometry N [2]: 6 and 12
- stoichiometry N [1]: 3

- maximal ratio of bound Hal3 to GST-Ppz1^Cter (GST-Ppz1^Cter): ~0.5
B3: Hal3 (full length, obtained from GST-Hal3 by PreScission protease treatment) (natural protein, S. cerevisiae, UniProt P36024 1-562, looked up)
chain: MTAVASTSGKQDADHNQSIECPRFSRGQKEILLDHEDAKGKDSIINSPVSGRQSISPTLSNATTTTTKSIMNATGTSGAVVSNTPEPGLKRVPAVTFSDLKQQQKQDSLTQLKNDSERTKSPNSNPAPVSNSIPGNHAVIPNHTNTSRTTQLSGSPLVNEMKDYDPKKKDSALKIVDTMKPDKIMATSTPISRENNKVTAKAPTSITLRKEDAQDQANNVSGQINVRSTPEETPVKQSVIPSIIPKRENSKNLDPRLPQDDGKLHVLFGATGSLSVFKIKPMIKKLEEIYGRDRISIQVILTQSATQFFEQRYTKKIIKSSEKLNKMSQYESTPATPVTPTPGQCNMAQVVELPPHIQLWTDQDEWDAWKQRTDPVLHIELRRWADILVVAPLTANTLSKIALGLCDNLLTSVIRAWNPSYPILLAPSMVSSTFNSMMTKKQLQTIKEEMSWVTVFKPSEKVMDINGDIGLGGMMDWNEIVNKIVMKLGGYPKNNEEEDDDEDEEEDDDEEEDTEDKNENNNDDDDDDDDDDDDDDDDDDDDDDDDEDEDEAETPGIIDKHQ
notes: Hal3 (Sis2), S. cerevisiae, the entire protein, expressed from pGEX6P1-Hal3; also called Sis2; recombinant Hal3; source: E. coli BL21 (DE3), GST-Hal3 purified and digested with PreScission protease

- stoichiometry N (6 × His-Ppz1^Cter): ~1
B4: Hal3 (untagged, entire, co-expressed from pETDuet-1) (natural protein, S. cerevisiae, UniProt P36024 1-562, looked up)
chain: MTAVASTSGKQDADHNQSIECPRFSRGQKEILLDHEDAKGKDSIINSPVSGRQSISPTLSNATTTTTKSIMNATGTSGAVVSNTPEPGLKRVPAVTFSDLKQQQKQDSLTQLKNDSERTKSPNSNPAPVSNSIPGNHAVIPNHTNTSRTTQLSGSPLVNEMKDYDPKKKDSALKIVDTMKPDKIMATSTPISRENNKVTAKAPTSITLRKEDAQDQANNVSGQINVRSTPEETPVKQSVIPSIIPKRENSKNLDPRLPQDDGKLHVLFGATGSLSVFKIKPMIKKLEEIYGRDRISIQVILTQSATQFFEQRYTKKIIKSSEKLNKMSQYESTPATPVTPTPGQCNMAQVVELPPHIQLWTDQDEWDAWKQRTDPVLHIELRRWADILVVAPLTANTLSKIALGLCDNLLTSVIRAWNPSYPILLAPSMVSSTFNSMMTKKQLQTIKEEMSWVTVFKPSEKVMDINGDIGLGGMMDWNEIVNKIVMKLGGYPKNNEEEDDDEDEEEDDDEEEDTEDKNENNNDDDDDDDDDDDDDDDDDDDDDDDDEDEDEAETPGIIDKHQ
notes: Hal3 (Sis2), S. cerevisiae, the entire Hal3, second MCS of pETDuet-1; also called Sis2; untagged version of Hal3; source: E. coli BL21 (DE3), co-expressed with 6 × His-Ppz1^Cter from pETDuet-1; purified as the complex (Ni2+ IMAC, SEC)

- ratio of Vhs3^PD to Cab3^PD in the co-purified binary mixture (6 × His-Vhs3^PD): ≥ 2 fold
- ratio of Vhs3^PD to Cab3^PD in the co-purified ternary mixture (6 × His-Vhs3^PD): ~1
- ratio of Hal3^PD to Cab3^PD in the co-purified binary mixture (6 × His-Hal3^PD): ≥ 2 fold
- ratio of Hal3^PD to Cab3^PD in the co-purified ternary mixture (6 × His-Hal3^PD): ~2
B5: Cab3^PD (untagged) (domain or fragment, S. cerevisiae, UniProt P36076 305-508, looked up)
chain: DDKKFHILIGATGSVATIKVPLIIDKLFKIYGPEKISIQLIVTKPAEHFLKGLKMSTHVKIWREEDAWVFDAVNKNDTSLSLNLILHHELRKWADIFLIAPLSANTLAKLANGICNNLLTSVMRDWSPLTPVLIAPAMNTFMYINPMTKKHLTSLVQDYPFIQVLKPVEKVLICGDIGMGGMREWTDIVEIVRRRINEIRKARD
notes: Cab3 (previously Ykl088w), S. cerevisiae, PPCDC domain (PD), residues 305–508; Expected MW 23.3 kDa; could not be made on its own; also called PPCDC domain of Cab3; Ykl088w PD; source: E. coli BL21 (DE3), co-expressed from the second MCS of pETDuet-1 with 6 × His-Hal3^PD and/or 6 × His-Vhs3^PD; co-purified (Ni2+ IMAC)
